Data from article PMC5910193.

How the values were obtained:
[1] = target: PEbody with N-terminal 6x His tag (human) (UniProt P02751); assay: BLI
[2] = target: Single4 monobody displayed on the yeast surface (human) (UniProt P02751); assay: flow cytometry on cells

R-Phycoerythrin (complex)
Kd [1]: 5.7 nM
fold R-PE binding capability against G9 [2]: 500 fold
